In article doi:10.1101/2024.07.30.605797:

Target: C-terminal His6-tagged VanA-type VanS^127-384 (cytoplasmic domain of the histidine kinase VanS) (UniProt Q06240)
Assay: differential scanning fluorimetry

Row | Substance | Kd [µM]
1 | siamycin I (peptide) | 38
2 | sviceucin (peptide) | 52
